PMC9501438 (International Journal of Molecular Sciences, 2022)
Values belong to the binder of their own block, whether it stands above or below them.

Key:
UBCH5B [1] = target: T1, UBCH5B (UniProt P62837 1-147); test: ITC; Microcal PEAQ ITC, 25 °C; 75-200 uM Arkadia polypeptide in the cell, 0.75-2 mM UBCH5B from the syringe in 2 uL injections; single site-binding model; conditions: both partners purified
T1 construct: UBCH5B, E2 ubiquitin-conjugating enzyme, wild type; 15N-labelled in the NMR titrations; also called E2 enzyme UBCH5B; wt UBCH5B

UBCH5B [2] = target: T1, UBCH5B; test: as above; conditions: both partners purified; remark: listed apart in the source

Kd (UBCH5B [1]): 32 µM
B1: Arkadia RING 68 aa (domain or fragment)
chain: KQDGEEGTEEDTEEKCTICLSILEEGEDVRRLPCMHLFHQVCVDQWLITNKKCPICRVDIEAQLPSES
notes: Cloned into pGEX-4T-1; also called Ark RING 68aa; Ark 68 aa; source: E. coli, purified (GST-trap, thrombin cleavage, Superdex 75 SEC); not shown: GST, N-terminal, cleaved

Kd (UBCH5B [1]): 2.7 µM
B2: Arkadia 119 aa polypeptide (domain or fragment)
chain: FRGNFEELIHLEERLGNVNRGASQGTIERCTYPHKYKKVTTDWFSQRKLHCKQDGEEGTEEDTEEKCTICLSILEEGEDVRRLPCMHLFHQVCVDQWLITNKKCPICRVDIEAQLPSES
notes: Cloned into pGEX-4T-1; source: E. coli, purified (GST-trap, thrombin cleavage, Superdex 75 SEC); not shown: GST, N-terminal, cleaved

Kd (UBCH5B [2]): 23 µM
B3: Arkadia 90 aa polypeptide (domain or fragment)
chain: CTYPHKYKKVTTDWFSQRKLHCKQDGEEGTEEDTEEKCTICLSILEEGEDVRRLPCMHLFHQVCVDQWLITNKKCPICRVDIEAQLPSES
notes: Arkadia (RNF111), human, isoform 1, residues 905-994: NLS, the segment unique to isoform 1 and the RING-H2 domain; Cloned into pGEX-4T-1; also called Ark 90 aa; source: E. coli, purified (GST-trap, thrombin cleavage, Superdex 75 SEC); not shown: GST, N-terminal, cleaved
